B1: CTNNA1, P35221 (peptide)
chain: LSEFKAMDSI

Each binder was assayed against DLG1_2, Q12959 (assay: holdup assay). Details: plain residues with an end cap or a label only (N-terminal biotin on a linker: ado-ado).
DLG1_2, Q12959, sequence (Q12959 314-412): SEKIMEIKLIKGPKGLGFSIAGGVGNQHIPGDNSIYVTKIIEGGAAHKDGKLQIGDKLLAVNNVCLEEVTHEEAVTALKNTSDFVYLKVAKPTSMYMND
Set-up: key: below the threshold = too weak to quantify, mostly under pKd 3.1 to 4
In the case of B1, the pKd is reported as “below the threshold”.

These binders were tested against DLG2_2, Q15700 (assay: holdup assay). Details: plain residues with an end cap or a label only (N-terminal biotin on a linker: ado-ado).
Set-up: key: below the threshold = too weak to quantify, mostly under pKd 3.1 to 4
For B1, the pKd was “below the threshold”.

The binders below were run against DLG2_3, Q15700 (assay: holdup assay). Details: plain residues with an end cap or a label only (N-terminal biotin on a linker: ado-ado).
Set-up: key: below the threshold = too weak to quantify, mostly under pKd 3.1 to 4
In the case of B1, the pKd is reported as “below the threshold”.

What follows are binders tested against DLG5_1, Q8TDM6 (assay: holdup assay). Details: plain residues with an end cap or a label only (N-terminal biotin on a linker: ado-ado).
DLG5_1, Q8TDM6, sequence (Q8TDM6 617-713): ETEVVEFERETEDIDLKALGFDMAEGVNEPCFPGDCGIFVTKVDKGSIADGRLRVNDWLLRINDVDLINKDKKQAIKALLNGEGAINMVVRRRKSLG
Set-up: key: below the threshold = too weak to quantify, mostly under pKd 3.1 to 4
For B1, the pKd was “below the threshold”.

The binders below were run against GRID2IP_2, A4D2P6 (assay: holdup assay). Details: plain residues with an end cap or a label only (N-terminal biotin on a linker: ado-ado).
GRID2IP_2, A4D2P6, sequence (A4D2P6 272-370): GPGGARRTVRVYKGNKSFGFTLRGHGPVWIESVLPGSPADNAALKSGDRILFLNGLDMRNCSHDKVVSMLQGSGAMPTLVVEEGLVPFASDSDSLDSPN
Set-up: key: below the threshold = too weak to quantify, mostly under pKd 3.1 to 4
For B1, the pKd was “below the threshold”.

Each binder was assayed against T1, GRIP1_3, Q9Y3R0 (assay: holdup assay). Details: plain residues with an end cap or a label only (N-terminal biotin on a linker: ado-ado).
T1 sequence (Q9Y3R0 247-346, limits assumed, looked up): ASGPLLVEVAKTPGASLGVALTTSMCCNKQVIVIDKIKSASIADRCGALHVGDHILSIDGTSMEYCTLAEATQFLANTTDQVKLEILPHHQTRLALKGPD
Set-up: key: below the threshold = too weak to quantify, mostly under pKd 3.1 to 4
B1 was tested, and the pKd was “below the threshold”.

Each binder was assayed against T2, GRIP1_7, Q9Y3R0 (assay: holdup assay). Details: plain residues with an end cap or a label only (N-terminal biotin on a linker: ado-ado).
T2 sequence (Q9Y3R0 999-1096, limits assumed, looked up): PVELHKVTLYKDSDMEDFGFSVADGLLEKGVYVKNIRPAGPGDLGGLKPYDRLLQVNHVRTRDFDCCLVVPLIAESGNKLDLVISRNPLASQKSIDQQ
Set-up: key: below the threshold = too weak to quantify, mostly under pKd 3.1 to 4
With B1 the pKd was “below the threshold”.

What follows are binders tested against GRIP2_7, Q9C0E4 (assay: holdup assay). Details: plain residues with an end cap or a label only (N-terminal biotin on a linker: ado-ado).
GRIP2_7, Q9C0E4, sequence (Q9C0E4 934-1023): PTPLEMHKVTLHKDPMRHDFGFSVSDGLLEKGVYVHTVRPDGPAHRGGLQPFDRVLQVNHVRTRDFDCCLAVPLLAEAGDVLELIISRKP
Set-up: key: below the threshold = too weak to quantify, mostly under pKd 3.1 to 4
In the case of B1, the pKd is reported as “below the threshold”.

What follows are binders tested against HTRA1, Q92743 (assay: holdup assay). Details: plain residues with an end cap or a label only (N-terminal biotin on a linker: ado-ado).
HTRA1, Q92743, sequence (Q92743 360-477): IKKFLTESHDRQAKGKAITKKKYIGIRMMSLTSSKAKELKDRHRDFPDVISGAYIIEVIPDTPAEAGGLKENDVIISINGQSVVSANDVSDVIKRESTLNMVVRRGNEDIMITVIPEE
Set-up: key: below the threshold = too weak to quantify, mostly under pKd 3.1 to 4
For B1, the pKd was “below the threshold”.

Each binder was assayed against Inadl_5, Q8NI35 (assay: holdup assay). Details: plain residues with an end cap or a label only (N-terminal biotin on a linker: ado-ado).
Inadl_5, Q8NI35, sequence (Q8NI35 673-780): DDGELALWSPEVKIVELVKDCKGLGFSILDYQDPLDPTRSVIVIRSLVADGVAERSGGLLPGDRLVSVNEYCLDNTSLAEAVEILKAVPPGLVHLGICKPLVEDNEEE
Set-up: key: below the threshold = too weak to quantify, mostly under pKd 3.1 to 4
For B1, the pKd was “below the threshold”.

These binders were tested against LIMK2, P53671 (assay: holdup assay). Details: plain residues with an end cap or a label only (N-terminal biotin on a linker: ado-ado).
LIMK2, P53671, sequence (P53671 143-248): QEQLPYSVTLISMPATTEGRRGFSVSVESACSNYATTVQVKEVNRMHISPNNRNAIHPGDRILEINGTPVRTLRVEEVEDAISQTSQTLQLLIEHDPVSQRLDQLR
Set-up: key: below the threshold = too weak to quantify, mostly under pKd 3.1 to 4
For B1, the pKd was “below the threshold”.

These binders were tested against T3, LRRC7, Q96NW7 (assay: holdup assay). Details: plain residues with an end cap or a label only (N-terminal biotin on a linker: ado-ado).
T3 sequence (Q96NW7 1440-1537, limits assumed, looked up): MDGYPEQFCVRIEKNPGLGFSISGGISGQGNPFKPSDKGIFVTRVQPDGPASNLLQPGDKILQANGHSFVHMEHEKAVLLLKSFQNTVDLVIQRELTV
Set-up: key: below the threshold = too weak to quantify, mostly under pKd 3.1 to 4
With B1 the pKd was “below the threshold”.

These binders were tested against MAGI2_3, Q86UL8 (assay: holdup assay). Details: plain residues with an end cap or a label only (N-terminal biotin on a linker: ado-ado).
MAGI2_3, Q86UL8, sequence (Q86UL8 600-682): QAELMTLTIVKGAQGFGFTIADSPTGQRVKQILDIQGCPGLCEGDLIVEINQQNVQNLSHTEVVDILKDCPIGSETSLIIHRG
Set-up: key: below the threshold = too weak to quantify, mostly under pKd 3.1 to 4
For B1, the pKd was “below the threshold”.

The binders below were run against MAGI2_4, Q86UL8 (assay: holdup assay). Details: plain residues with an end cap or a label only (N-terminal biotin on a linker: ado-ado).
MAGI2_4, Q86UL8, sequence (Q86UL8 772-865): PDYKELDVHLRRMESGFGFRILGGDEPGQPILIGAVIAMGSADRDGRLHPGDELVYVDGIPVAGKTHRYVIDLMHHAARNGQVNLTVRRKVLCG
Set-up: key: below the threshold = too weak to quantify, mostly under pKd 3.1 to 4
B1 was tested, and the pKd was “below the threshold”.

Each binder was assayed against MAST1, Q9Y2H9 (assay: holdup assay). Details: plain residues with an end cap or a label only (N-terminal biotin on a linker: ado-ado).
MAST1, Q9Y2H9, sequence (Q9Y2H9 962-1065): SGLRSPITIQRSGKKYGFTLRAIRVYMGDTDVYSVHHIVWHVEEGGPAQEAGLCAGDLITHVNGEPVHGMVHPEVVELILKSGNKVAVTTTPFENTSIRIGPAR
Set-up: key: below the threshold = too weak to quantify, mostly under pKd 3.1 to 4
With B1 the pKd was “below the threshold”.

Each binder was assayed against T4, MPDZ_5, O75970 (assay: holdup assay). Details: plain residues with an end cap or a label only (N-terminal biotin on a linker: ado-ado).
T4 sequence (O75970 695-796, limits assumed, looked up): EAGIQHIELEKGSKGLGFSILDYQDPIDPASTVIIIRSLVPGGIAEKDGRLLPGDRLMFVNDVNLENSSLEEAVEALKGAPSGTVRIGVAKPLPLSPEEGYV
Set-up: key: below the threshold = too weak to quantify, mostly under pKd 3.1 to 4
In the case of B1, the pKd is reported as “below the threshold”.

Each binder was assayed against T5, MPP7, Q5T2T1 (assay: holdup assay). Details: plain residues with an end cap or a label only (N-terminal biotin on a linker: ado-ado).
T5 sequence (Q5T2T1 134-230, limits assumed, looked up): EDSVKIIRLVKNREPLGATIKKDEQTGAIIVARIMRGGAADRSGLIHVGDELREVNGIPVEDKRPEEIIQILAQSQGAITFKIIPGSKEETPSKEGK
Set-up: key: below the threshold = too weak to quantify, mostly under pKd 3.1 to 4
For B1, the pKd was “below the threshold”.

Each binder was assayed against T6, NHERF3_3, Q5T2W1 (assay: holdup assay). Details: plain residues with an end cap or a label only (N-terminal biotin on a linker: ado-ado).
T6 sequence (Q5T2W1 238-333, limits assumed, looked up): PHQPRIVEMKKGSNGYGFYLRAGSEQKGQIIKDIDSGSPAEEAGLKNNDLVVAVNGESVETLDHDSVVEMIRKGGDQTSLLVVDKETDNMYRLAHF
Set-up: key: below the threshold = too weak to quantify, mostly under pKd 3.1 to 4
In the case of B1, the pKd is reported as “below the threshold”.

The binders below were run against T7, NHERF3_4, Q5T2W1 (assay: holdup assay). Details: plain residues with an end cap or a label only (N-terminal biotin on a linker: ado-ado).
T7 sequence (Q5T2W1 373-468, limits assumed, looked up): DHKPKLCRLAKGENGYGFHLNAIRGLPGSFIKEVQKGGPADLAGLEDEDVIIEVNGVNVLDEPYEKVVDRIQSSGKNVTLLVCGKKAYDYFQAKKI
Set-up: key: below the threshold = too weak to quantify, mostly under pKd 3.1 to 4
With B1 the pKd was “below the threshold”.

What follows are binders tested against T8, PCLO, Q9Y6V0 (assay: holdup assay). Details: plain residues with an end cap or a label only (N-terminal biotin on a linker: ado-ado).
T8 sequence (Q9Y6V0 4491-4600, limits assumed, looked up): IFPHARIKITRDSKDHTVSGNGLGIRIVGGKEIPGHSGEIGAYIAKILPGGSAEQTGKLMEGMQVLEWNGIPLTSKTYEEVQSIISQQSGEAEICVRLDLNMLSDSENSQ
Set-up: key: below the threshold = too weak to quantify, mostly under pKd 3.1 to 4
B1 was tested, and the pKd was “below the threshold”.

The binders below were run against PDZRN4_1, Q6ZMN7 (assay: holdup assay). Details: plain residues with an end cap or a label only (N-terminal biotin on a linker: ado-ado).
PDZRN4_1, Q6ZMN7, sequence (Q6ZMN7 213-318): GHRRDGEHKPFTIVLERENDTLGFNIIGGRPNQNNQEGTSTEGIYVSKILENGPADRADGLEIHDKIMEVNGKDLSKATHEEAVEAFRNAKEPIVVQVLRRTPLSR
Set-up: key: below the threshold = too weak to quantify, mostly under pKd 3.1 to 4
For B1, the pKd was “below the threshold”.

These binders were tested against T9, RHPN1, Q8TCX5 (assay: holdup assay). Details: plain residues with an end cap or a label only (N-terminal biotin on a linker: ado-ado).
T9 sequence (Q8TCX5 508-602, limits assumed, looked up): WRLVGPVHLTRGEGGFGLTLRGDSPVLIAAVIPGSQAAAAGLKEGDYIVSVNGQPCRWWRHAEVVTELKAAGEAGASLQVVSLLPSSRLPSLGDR
Set-up: key: below the threshold = too weak to quantify, mostly under pKd 3.1 to 4
B1 was tested, and the pKd was “below the threshold”.

These binders were tested against T10, SNTA1, Q13424 (assay: holdup assay). Details: plain residues with an end cap or a label only (N-terminal biotin on a linker: ado-ado).
T10 sequence (Q13424 82-180, limits assumed, looked up): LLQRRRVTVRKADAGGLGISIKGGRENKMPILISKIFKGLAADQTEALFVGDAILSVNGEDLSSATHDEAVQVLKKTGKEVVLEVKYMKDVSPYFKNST
Set-up: key: below the threshold = too weak to quantify, mostly under pKd 3.1 to 4
In the case of B1, the pKd is reported as “below the threshold”.

These binders were tested against T11, SYNJ2BP, P57105 (assay: holdup assay). Details: plain residues with an end cap or a label only (N-terminal biotin on a linker: ado-ado).
T11 sequence (P57105 8-110, limits assumed, looked up): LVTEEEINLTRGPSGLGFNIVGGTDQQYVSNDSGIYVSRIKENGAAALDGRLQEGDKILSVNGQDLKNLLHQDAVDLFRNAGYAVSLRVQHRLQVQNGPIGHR
Set-up: key: below the threshold = too weak to quantify, mostly under pKd 3.1 to 4
For B1, the pKd was “below the threshold”.

The binders below were run against T12, TX1BP3, O14907 (assay: holdup assay). Details: plain residues with an end cap or a label only (N-terminal biotin on a linker: ado-ado).
T12 sequence (O14907 10-122, limits assumed, looked up): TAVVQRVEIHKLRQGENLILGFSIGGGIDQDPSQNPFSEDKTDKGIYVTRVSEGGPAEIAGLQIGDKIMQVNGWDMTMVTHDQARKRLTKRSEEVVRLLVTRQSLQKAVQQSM
Set-up: key: below the threshold = too weak to quantify, mostly under pKd 3.1 to 4
With B1 the pKd was 3.47.

From PMC9482650, “Quantitative fragmentomics allow affinity mapping of interactomes” (Nature Communications, 2022)
